Earlier results on 2 substances are cited in PMC7826847.

Read-outs that look alike come from different tables or passages of the source.

Data set [1] addresses Nectin-3 (UniProt Q9NQS3).
For data set [2], the target named is Nectin-3 (UniProt Q9NQS3). This is another data set of the same source.
Sequence of Nectin-3 (Q9NQS3 58-404): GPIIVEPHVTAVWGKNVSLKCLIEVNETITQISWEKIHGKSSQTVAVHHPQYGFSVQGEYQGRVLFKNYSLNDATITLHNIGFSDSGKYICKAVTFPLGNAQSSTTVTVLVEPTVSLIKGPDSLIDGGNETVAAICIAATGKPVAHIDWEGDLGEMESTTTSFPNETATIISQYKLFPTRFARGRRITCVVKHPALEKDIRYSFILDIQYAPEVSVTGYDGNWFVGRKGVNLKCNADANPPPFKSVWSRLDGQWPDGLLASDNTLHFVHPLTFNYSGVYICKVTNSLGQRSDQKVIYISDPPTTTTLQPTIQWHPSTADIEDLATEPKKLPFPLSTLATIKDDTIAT

Sequence of Nectin-1 (Q15223 31-355): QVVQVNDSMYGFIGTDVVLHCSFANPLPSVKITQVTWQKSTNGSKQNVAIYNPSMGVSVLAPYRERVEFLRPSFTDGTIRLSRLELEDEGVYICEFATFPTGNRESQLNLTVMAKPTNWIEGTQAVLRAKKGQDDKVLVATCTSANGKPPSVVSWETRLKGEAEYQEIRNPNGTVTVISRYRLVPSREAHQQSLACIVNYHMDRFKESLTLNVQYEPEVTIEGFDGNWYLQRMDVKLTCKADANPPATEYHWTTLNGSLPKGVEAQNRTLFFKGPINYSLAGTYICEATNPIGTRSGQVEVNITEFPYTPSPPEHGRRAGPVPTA
Sequence of Nectin-2 (Q92692 32-360): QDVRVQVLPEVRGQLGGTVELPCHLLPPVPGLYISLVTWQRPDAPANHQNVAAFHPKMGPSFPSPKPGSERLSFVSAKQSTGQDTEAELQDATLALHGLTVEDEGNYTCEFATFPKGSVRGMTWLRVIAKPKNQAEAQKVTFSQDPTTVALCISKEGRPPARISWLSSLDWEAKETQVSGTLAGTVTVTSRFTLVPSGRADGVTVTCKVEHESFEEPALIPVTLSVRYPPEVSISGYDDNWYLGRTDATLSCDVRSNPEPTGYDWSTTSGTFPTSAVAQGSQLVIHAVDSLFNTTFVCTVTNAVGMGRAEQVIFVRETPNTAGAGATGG

Usually Kd stands for the concentration at which binding is half-saturated. Take Nectin-1 (from UniProt Q15223): the Kd with Nectin-3 [1] was 0.0023 µM.
With Nectin-2 (from UniProt Q92692), in the data set with Nectin-3 [2], the Kd was 0.36 µM.
